Data reported in patent US20240166765A1, “INFLAMMATORY DISEASE TREATMENT USING ANTI-TISSUE FACTOR ANTIBODIES” (Iconic Therapeutics LLC, priority 2020, published 2024).

Legend:
Format in all cases: binding
[1] = target: T1, human TF (TF-positive MDA-MB-231 cells) (Homo sapiens, UniProt P13726); assay: Antibody competition assay with 25A3 on MDA-MB-231 cells; settings: 20 nM 25A3-Alexa488
T1 construct: Human TF-positive cancer cell lines A431 and MDA-MB-231; host or cells: MDA-MB-231
Procedure: (§1) Alexa Fluor antibodies were generated using Alexa Fluor 488 5-sulfo-[…] esters (ThermoFisher Scientific) following manufacturer's protocol. Excess Alexa Fluor dye was removed from the antibody dye conjugate preparations by gel filtration (ThermoFisher Scientific).
(§2) After another 1 hr incubation on ice, cells were washed, stained with a viability dye, and analyzed by flow cytometry. The Alexa488 fluorescence data from viable cells was summarized using median fluorescence intensity.

[2] = target: T2, chimeric human-rat TF constructs expressed on HEK293 cells (Homo sapiens, UniProt P13726, D177Q/N170G/R168K/S174T); assay: Epitope binning, chimeric TF construct mapping (live cell staining assay); settings: construct h133-145_r (4); human segment replaced by rat segment
T2 construct: expressed in transfected cells; host or cells: HEK293
T2 sequence (P13726 33-251 R168K/N170G/S174T/D177Q): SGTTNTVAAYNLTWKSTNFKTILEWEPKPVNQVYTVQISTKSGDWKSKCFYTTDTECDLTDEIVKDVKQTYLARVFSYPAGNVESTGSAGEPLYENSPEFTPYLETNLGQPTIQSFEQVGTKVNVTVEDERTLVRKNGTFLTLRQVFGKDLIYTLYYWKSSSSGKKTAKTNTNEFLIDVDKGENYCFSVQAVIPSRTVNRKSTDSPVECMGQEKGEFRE
Procedure: (§3) To establish binding of the anti-human TF antibodies to the various TF constructs, HEK293 cells were transfected with a DNA plasmid that co-expresses the TF construct and a green fluorescent protein marker. For a subset of the antibodies, an antibody titration (a 12-point 1:3 dilution series starting at 250 nM) was evaluated on select TF constructs (See international PCT application PCT/US2019/012427 and U.S. utility application Ser. No. 16/959,652, incorporated herein by reference in their entirety). […] Two days after transfection, cells were collected from the tissue culture plate, stained with 15 μg/ml of the indicated anti-TF antibody, washed, stained with anti-human IgG-Fc Alexa Fluor 647 polyclonal antibody, washed, and stained with the viability dye 4′,6-Diamidino-2-Phenylindole, Dihydrochloride. Upon acquisition of 80,000 live events on a flow cytometer, live cells marked with the fluorescent marker were analyzed for the degree of staining by the anti-TF antibody. […] As used herein, the term “live cell staining assay” refers to the antibody binding assay used in this example.
(§4) When “Percentage antibody binding to TF construct relative to hTF” in Tables 51 and 52 was less than 50%, the antibody was considered a non-binder (0) in Tables 53 and 54.

[3] = target: T3, chimeric human-rat TF constructs expressed on HEK293 cells (Homo sapiens, UniProt P13726, D76N/F108L/F82T/G75R/K100N/K73R/L104E/Q101W/S79Y/T72D/Y83G); assay: as above; settings: construct h39-77_r (11); human segment replaced by rat segment
T3 construct: expressed in transfected cells; host or cells: HEK293
T3 sequence (P13726 33-251 T72D/K73R/G75R/D76N/S79Y/F82T/Y83G/K100N/Q101W/L104E/F108L): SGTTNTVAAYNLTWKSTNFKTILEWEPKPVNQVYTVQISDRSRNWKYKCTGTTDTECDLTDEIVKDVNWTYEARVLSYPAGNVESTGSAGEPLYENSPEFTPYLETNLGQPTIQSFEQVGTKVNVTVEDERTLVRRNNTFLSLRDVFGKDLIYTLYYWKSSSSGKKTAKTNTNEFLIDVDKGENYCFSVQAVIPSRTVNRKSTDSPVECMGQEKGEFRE
Procedure: as §3, §4

[4] = target: T4, chimeric human-rat TF constructs expressed on HEK293 cells (Homo sapiens, UniProt P13726, I184G/K181N/T186I/W190R/Y188T); assay: as above; settings: construct h146-158_r (5); human segment replaced by rat segment
T4 construct: expressed in transfected cells; host or cells: HEK293
T4 sequence (P13726 33-251 K181N/I184G/T186I/Y188T/W190R): as the sequence (P13726 33-251 R168K/N170G/S174T/D177Q) above, with K136R, G138N, T142S, Q145D, K149N, I152G, T154I, Y156T, W158R counted along it
Procedure: as §3, §4

[5] = target: T5, chimeric human-rat TF constructs expressed on HEK293 cells (Homo sapiens, UniProt P13726); assay: as above; settings: construct hTF
T5 construct: expressed in transfected cells; host or cells: HEK293
T5 sequence (P13726 33-251, change not shown): as the sequence (P13726 33-251 R168K/N170G/S174T/D177Q) above, with K136R, G138N, T142S, Q145D counted along it
Procedure: as §3, §4

[6] = target: T6, chimeric human-rat TF constructs expressed on HEK293 cells (Homo sapiens, UniProt P13726, A200N/K197R/K201T/N203H/S192D/S195T); assay: as above; settings: construct h159-174_r (6); human segment replaced by rat segment
T6 construct: expressed in transfected cells; host or cells: HEK293
T6 sequence (P13726 33-251 S192D/S195T/K197R/A200N/K201T/N203H): as the sequence (P13726 33-251 R168K/N170G/S174T/D177Q) above, with K136R, G138N, T142S, Q145D, S160D, S163T, K165R, A168N, K169T, N171H counted along it
Procedure: as §3, §4

[7] = target: T7, chimeric human-rat TF constructs expressed on HEK293 cells (Homo sapiens, UniProt P13726, A112W/A121H/DEL115-116/DUP123-123/G113R/INS118HGKETLF/L125P/S120T/Y110V); assay: as above; settings: construct h78-93_r (18); human segment replaced by rat segment
T7 construct: expressed in transfected cells; host or cells: HEK293
T7 sequence (P13726 with tags, fused parts or gaps with the stated changes): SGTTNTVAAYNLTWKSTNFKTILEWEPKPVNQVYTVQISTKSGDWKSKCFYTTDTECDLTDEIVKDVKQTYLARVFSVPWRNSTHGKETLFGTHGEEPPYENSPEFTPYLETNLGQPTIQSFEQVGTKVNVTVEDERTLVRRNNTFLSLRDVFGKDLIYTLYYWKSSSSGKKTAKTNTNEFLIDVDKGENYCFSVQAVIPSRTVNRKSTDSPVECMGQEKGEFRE
Procedure: as §3, §4

[8] = target: T8, chimeric human-rat TF constructs expressed on HEK293 cells (Homo sapiens, UniProt P13726, D212E/E215V/N216S/S220F/V221A); assay: as above; settings: construct h175-189_r (5); human segment replaced by rat segment
T8 construct: expressed in transfected cells; host or cells: HEK293
T8 sequence (P13726 33-251 D212E/E215V/N216S/S220F/V221A): as the sequence (P13726 33-251 R168K/N170G/S174T/D177Q) above, with K136R, G138N, T142S, Q145D, D180E, E183V, N184S, S188F, V189A counted along it
Procedure: as §3, §4

[9] = target: T9, chimeric human-rat TF constructs expressed on HEK293 cells (Homo sapiens, UniProt P13726, K100N); assay: as above; settings: construct hTF_K68N
T9 construct: expressed in transfected cells; host or cells: HEK293
T9 sequence (P13726 33-251 K100N): as the sequence (P13726 33-251 R168K/N170G/S174T/D177Q) above, with K68N, K136R, G138N, T142S, Q145D counted along it
Procedure: as §3, §4

[10] = target: T10, chimeric human-rat TF constructs expressed on HEK293 cells (Homo sapiens, UniProt P13726, A200N/K201T/N203H); assay: as above; settings: construct h167-174_r (3); human segment replaced by rat segment
T10 construct: expressed in transfected cells; host or cells: HEK293
T10 sequence (P13726 33-251 A200N/K201T/N203H): as the sequence (P13726 33-251 R168K/N170G/S174T/D177Q) above, with K136R, G138N, T142S, Q145D, A168N, K169T, N171H counted along it
Procedure: as §3, §4

[11] = target: T11, chimeric human-rat TF constructs expressed on HEK293 cells (Homo sapiens, UniProt P13726, N170G/R168K); assay: as above; settings: construct h133-139_r (2); human segment replaced by rat segment
T11 construct: expressed in transfected cells; host or cells: HEK293
T11 sequence (P13726 33-251 R168K/N170G): as the sequence (P13726 33-251 R168K/N170G/S174T/D177Q) above, with T142S, Q145D counted along it
Procedure: as §3, §4

[12] = target: T12, chimeric human-rat TF constructs expressed on HEK293 cells (Homo sapiens, UniProt P13726, D177Q/E160K/E162S/F148Y/I184G/K181N/L140I/N156K/N170G/R163F/R168K/S147K/S174T/T144V/T186I/V151G/V155L/W190R/Y188T); assay: as above; settings: construct h108-158_r (19); human segment replaced by rat segment
T12 construct: expressed in transfected cells; host or cells: HEK293
T12 sequence (P13726 33-251 with the stated changes): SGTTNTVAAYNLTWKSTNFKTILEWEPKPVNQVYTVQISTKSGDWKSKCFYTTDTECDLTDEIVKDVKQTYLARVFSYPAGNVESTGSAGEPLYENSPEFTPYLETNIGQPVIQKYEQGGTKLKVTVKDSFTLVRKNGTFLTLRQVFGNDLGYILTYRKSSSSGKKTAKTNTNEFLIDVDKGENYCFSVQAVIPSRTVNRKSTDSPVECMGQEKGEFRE
Procedure: as §3, §4

[13] = target: T1, human TF (TF-positive MDA-MB-231 cells); assay: Antibody competition assay with 43D7 on MDA-MB-231 cells; settings: 20 nM 43D7-Alexa488
Procedure: as §1, §2

T1 sequence (P13726 33-295): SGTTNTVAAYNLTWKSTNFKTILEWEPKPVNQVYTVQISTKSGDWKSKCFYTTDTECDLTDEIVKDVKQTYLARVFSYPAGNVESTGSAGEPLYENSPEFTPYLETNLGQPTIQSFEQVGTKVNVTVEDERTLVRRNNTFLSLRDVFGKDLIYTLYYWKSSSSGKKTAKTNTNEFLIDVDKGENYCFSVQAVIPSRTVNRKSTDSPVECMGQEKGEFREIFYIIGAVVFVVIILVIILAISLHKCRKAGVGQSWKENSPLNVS

Substance: TF-011
- % 25A3 binding [1]: did not reduce
- Antibody binding to TF construct [2]: 1 (between 50% and 150%, the antibody was considered a binder (1))
- Antibody binding to TF construct [3]: 0 (less than 50%, the antibody was considered a non-binder (0))
- Antibody binding to TF construct [4]: 1 (between 50% and 150%, the antibody was considered a binder (1))
- Antibody binding to TF construct ([5]; Table 53): 1 (between 50% and 150%, the antibody was considered a binder (1))
- Antibody binding to TF construct ([5]; Table 54): 1 (between 50% and 150%, the antibody was considered a binder (1))
- Antibody binding to TF construct [6]: 1 (between 50% and 150%, the antibody was considered a binder (1))
- Antibody binding to TF construct [7]: 1 (between 50% and 150%, the antibody was considered a binder (1))
- Antibody binding to TF construct [8]: 1 (between 50% and 150%, the antibody was considered a binder (1))
- Antibody binding to TF construct [9]: 1 (between 50% and 150%, the antibody was considered a binder (1))
- Antibody binding to TF construct [10]: 1 (between 50% and 150%, the antibody was considered a binder (1))
- Antibody binding to TF construct [11]: 1 (between 50% and 150%, the antibody was considered a binder (1))
- Antibody binding to TF construct [12]: 1 (between 50% and 150%, the antibody was considered a binder (1))
- % 43D7 binding [13]: did not reduce
